Assay results as given in patent US20100266532A1, “METHODS FOR INHIBITING SCARRING” (Renovo Limited, priority 2007, published 2010).

Tests used:
[1] = system: 1 centimetre experimental wound; test: Clinical trial, single intradermal injection, lay panel VAS scar scoring (ToScar); type: in vivo, human
Procedure: FIG. 1 illustrates data from a clinical trial conducted by the inventors to generate a dose response curve indicative of the anti-scarring effect achieved using various different doses of TGF-β3 administered in a single incidence of treatment. Either TGF-β3 or placebo were administered as a single intradermal injection to a 1 centimetre experimental wound. […] To test the treatment effect, ToScar of the TGFβ3 scar was subtracted from the anatomically matched Placebo ToScar on the other arm on each subject. ToScar was calculated as the sum of VAS scores (mm) from week 6 and months 3, 4, 5, 6 and 7. The scars were scored by an independent lay panel at 6 time points after dosing (week 6, months 3-7) using a 100 mm VAS line.

[2] = system: 1 cm incisional rat wounds; test: Rat model of wound healing and scarring, escalating versus constant doses, macroscopic VAS; type: in vivo
Procedure: FIG. 11 is a graph comparing the mean differences between macroscopic VAS scores of scars formed on healing of 1 cm incisional rat wounds treated with a diluent control (“placebo treated wounds”), and scars formed on healing of wounds provided with one of the following regimes: • i) TGF-β3 control treatment using 20 ng TGF-β3 per centimetre; • ii) TGF-β3 control treatment using 100 ng TGF-β3 per centimetre; or • iii) TGFβ3 treatment using escalating doses of TGF-β3 administered in sequential incidences of treatment.
In each case the wounds were subject to two incidences of treatment, the first prior to wounding and the second approximately 24 hours later.
Placebo treated control wounds were provided with two incidences of treatment, each of which consisted of administration of a diluent. These placebo treated wounds provide a baseline value for scarring, with reference to which scar inhibition produced by TGF-β3 treatments may be determined. “Control treated wounds” were provided with two incidences of treatment, each comprising injections of TGF-β3 at either 20 ng/100 μl or 100 ng/100 μl (the same concentration of TGF-β3 being injected in each incidence of treatment). The “treated wounds” were provided with an escalating dose regimen in which the first incidence of treatment comprised an injection of 20 ng/100 μl TGFβ3, while the second incidence of treatment comprised an injection of 100 ng/100 μl TGFβ3.
Each animal received two wounds, and these were arranged so that the wounds of each animal included placebo treated wounds, as well as either treated wounds (examples treated using escalating doses of TGF-β3 administered in sequential incidences of treatment), or control treated wounds (receiving control treatment with TGF-β3 at the same dose in each incidence of treatment). This permits comparison between scars formed on healing of placebo treated wounds and treated or control treated wounds within the same subject. […]
Scars were assessed, and VAS scores produced, 70 days after wounding. […]

human wounds = test: Clinical trial, two incidences of treatment within approximately 1 hour, lay panel VAS scar scoring; type: in vivo
Procedure: FIG. 2 illustrates data from a clinical trial conducted by the inventors. In this study TGFβ3 and Placebo were each administered in two separate incidences of treatment (by means of two intradermal injections). However, unlike the methods of the present invention, the first incidence of treatment took place immediately prior to wounding but the second incidence of treatment occurred immediately after wound closure, i.e., both doses being administered within approximately 1 hour of one another (the first ten to thirty minutes prior to wounding, and the second ten to thirty minutes post-wounding). […] To test the treatment effect, ToScar of the TGFβ3 scar was subtracted from the anatomically matched Placebo ToScar on the other arm on each subject. ToScar was calculated as the sum of VAS scores (mm) from week 6 and months 3, 4, 5, 6 and 7. The scars were scored by an independent lay panel at 6 time points after dosing (week 6, months 3-7) using a 100 mm VAS line.
FIG. 8 illustrates data from a clinical trial conducted by the inventors in which either TGF-β3 or placebo were administered in two incidents of treatment (each comprising administration of the test substance by intradermal injection), the first incidence occurring prior to wounding and the second immediately after wound closure, i.e., both doses of TGF-β3 being the same as one another, and administered within approximately 1 hour (10-30 mins prior to wounding and 10-30 mins post wounding).

experimental rat wounds = test: Rat model of scar formation, dose response, two equal doses separated by 24 hours; type: in vivo; conditions: repeated treatment with low doses or with high doses (range 5-500 ng/cm), 24 hours apart
Procedure: FIG. 10 illustrates a “bell-shaped” dose response curve in a rat model of scar formation in response to different doses of TGF-β3. TGF-β3 was provided to wounds via two injections of TGF-β3 separated by approximately 24 hours. The amount of TGF-β3 provided in each injection was the same in each incidence of treatment.
FIG. 10 illustrates that the TGF-β3 “bell-shaped” dose response curve observed in human subjects is also found in experimental animals. Here, TGF-β3 was provided to experimental rat wounds, in two incidences of treatment separated by 24 hours (the first incidence of treatment occurring at, or around, the time of wounding). The amount of TGF-β3 administered per centimetre of wound in each incidence of treatment is shown on the X-axis (5 ng/cm, 50 ng/cm, 200 ng/cm or 500 ng/cm).

B1: TGF-β3: well-known anti-scarring growth factor, Sequence ID No. 1; labelled "Juvista" in FIGS. 8 and 9 (protein, listed as Homo sapiens)
chain: ALDTNYCFRNLEENCCVRPLYIDFRQDLGWKWVHEPKGYYANFCSGPCPYLRSADTTHSTVLGLYNTLNPEASASPCCVPQDLEPLTILYYVGRTPKVEQLSNMVVKSCKCS
[1]; single application of 50 ng, 200 ng or 500 ng/100 μl per cm of wound margin
  inhibition of scarring: effectively inhibited
[1]; single application, 200 ng/100 μl per cm of wound margin, maximum improvement
  scar improvement (placebo ToScar minus TGFβ3 ToScar, sum of VAS scores), average: > 50 mm
[1]; single application, 500 ng/100 μl per cm of wound margin, versus 200 ng
  drug efficacy at top of dose range: reduction in drug efficacy
[2]; dosed twice with either 20 ng/100 μl or 100 ng/100 μl, 24 hours apart, 70 days after wounding
  scarring compared to placebo (macroscopic VAS): displayed a reduction in scarring
[2]; escalating: 20 ng/100 μl then 100 ng/100 μl approximately 24 hours later, 70 days after wounding
  inhibition of scarring (macroscopic VAS) versus constant doses: much larger magnitude of effect
[2]; escalating: 20 ng/100 μl then 100 ng/100 μl approximately 24 hours later, 70 days post wounding
  inhibition of scarring, macroscopic images: greatest inhibition in scarring
Human wounds; two applications of 5, 50, 200 and 500 ng/100 μl per cm within approximately 1 hour, week 6 to month 7
  inhibition of scarring (mean VAS scores over time): scarring is inhibited
Human wounds; two applications of 5, 50, 200 and 500 ng/100 μl per cm, both within approximately 1 hour
  inhibition of scarring: effectively inhibited
Human wounds; two applications within approximately 1 hour, 200 ng/100 μl per cm, maximum improvement
  scar improvement (placebo ToScar minus TGFβ3 ToScar, sum of VAS scores), average: > 40 mm
Human wounds; two applications within approximately 1 hour, 500 ng/100 μl per cm, versus 200 ng
  drug efficacy at top of dose range: reduction in drug efficacy
Experimental rat wounds
  inhibition of scarring: little inhibition of scarring
